Data published in patent publication US20200332005A1.

Biological target: N-terminal of CD73
Assay: plate binding assay, axis Binding activity (OD450) against Ab (µg/ml); panel Binding to N-terminal of CD73

- EC50 (read off the curve): 0.01 µg/mL
Substance: MEDI-9447 (Medimmune) (antibody)
